Experimental data: paper PMC9482650, “Quantitative fragmentomics allow affinity mapping of interactomes” (Nature Communications, 2022)

Tests used:
Assay in all cases: holdup assay
Design in all cases: key: below the threshold = too weak to quantify, mostly under pKd 3.1 to 4
Details in all cases: plain residues with an end cap or a label only (N-terminal biotin on a linker: ttds)
Inadl_10, Q8NI35 = target: Inadl_10, Q8NI35
PDZD4, Q76G19 = target: T1, PDZD4, Q76G19
T1 sequence (Q76G19 125-224, limits assumed, looked up): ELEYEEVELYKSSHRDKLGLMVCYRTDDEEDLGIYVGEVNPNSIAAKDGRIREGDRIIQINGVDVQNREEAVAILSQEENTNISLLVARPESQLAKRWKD

PREX1_1, Q8TCU6 = target: PREX1_1, Q8TCU6
Sequence of PREX1_1, Q8TCU6 (Q8TCU6 608-718): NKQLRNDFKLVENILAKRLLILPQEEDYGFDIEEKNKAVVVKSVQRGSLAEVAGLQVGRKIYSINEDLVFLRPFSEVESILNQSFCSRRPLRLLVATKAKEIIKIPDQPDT

SCRIB_3, Q14160 = target: SCRIB_3, Q14160
Sequence of SCRIB_3, Q14160 (Q14160 999-1103): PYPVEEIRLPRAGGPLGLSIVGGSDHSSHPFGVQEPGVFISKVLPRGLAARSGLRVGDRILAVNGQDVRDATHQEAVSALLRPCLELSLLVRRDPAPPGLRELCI

CARD14, Q9BXL6 = target: CARD14, Q9BXL6
Sequence of CARD14, Q9BXL6 (Q9BXL6 558-663): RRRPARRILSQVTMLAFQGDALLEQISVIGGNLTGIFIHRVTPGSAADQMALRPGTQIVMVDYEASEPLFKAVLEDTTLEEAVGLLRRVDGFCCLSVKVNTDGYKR

SHROOM4, Q9ULL8 = target: T2, SHROOM4, Q9ULL8
T2 sequence (Q9ULL8 5-102, limits assumed, looked up): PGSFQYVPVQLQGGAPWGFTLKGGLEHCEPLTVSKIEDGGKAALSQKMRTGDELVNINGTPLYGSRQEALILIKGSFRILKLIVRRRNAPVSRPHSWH

PREX2_2, Q70Z35 = target: T3, PREX2_2, Q70Z35
T3 sequence (Q70Z35 672-764, limits assumed, looked up): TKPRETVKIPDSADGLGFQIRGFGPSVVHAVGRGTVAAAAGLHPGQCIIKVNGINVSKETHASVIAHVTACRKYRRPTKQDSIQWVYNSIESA

PDLIM1, O00151 = target: PDLIM1, O00151
Sequence of PDLIM1, O00151 (O00151 1-87): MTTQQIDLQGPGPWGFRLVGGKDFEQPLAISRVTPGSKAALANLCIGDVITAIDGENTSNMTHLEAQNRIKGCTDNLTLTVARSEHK

MAST3, O60307 = target: MAST3, O60307
Sequence of MAST3, O60307 (O60307 945-1048): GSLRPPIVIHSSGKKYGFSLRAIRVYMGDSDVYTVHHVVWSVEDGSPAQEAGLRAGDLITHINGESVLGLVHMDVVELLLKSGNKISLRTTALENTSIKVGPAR

PDZD2_5, O15018 = target: T4, PDZD2_5, O15018
T4 sequence (O15018 2617-2716, limits assumed, looked up): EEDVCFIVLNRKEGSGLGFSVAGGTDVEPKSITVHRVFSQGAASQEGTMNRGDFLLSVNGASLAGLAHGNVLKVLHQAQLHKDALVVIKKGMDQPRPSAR

MAGI1_3, Q96QZ7 = target: MAGI1_3, Q96QZ7
Sequence of MAGI1_3, Q96QZ7 (Q96QZ7 638-725): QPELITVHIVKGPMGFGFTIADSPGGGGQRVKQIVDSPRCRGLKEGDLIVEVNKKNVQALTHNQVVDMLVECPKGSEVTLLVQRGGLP

MAGI1_5, Q96QZ7 = target: MAGI1_5, Q96QZ7
Sequence of MAGI1_5, Q96QZ7 (Q96QZ7 986-1098): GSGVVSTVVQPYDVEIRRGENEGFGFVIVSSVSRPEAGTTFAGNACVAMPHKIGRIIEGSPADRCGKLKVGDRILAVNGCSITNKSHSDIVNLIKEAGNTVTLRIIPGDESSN

AHNAK2, Q8IVF2 = target: AHNAK2, Q8IVF2
Sequence of AHNAK2, Q8IVF2 (Q8IVF2 108-193): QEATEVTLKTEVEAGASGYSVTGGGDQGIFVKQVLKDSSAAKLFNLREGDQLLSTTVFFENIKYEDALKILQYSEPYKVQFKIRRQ

MPDZ_2, O75970 = target: T5, MPDZ_2, O75970
T5 sequence (O75970 252-347, limits assumed, looked up): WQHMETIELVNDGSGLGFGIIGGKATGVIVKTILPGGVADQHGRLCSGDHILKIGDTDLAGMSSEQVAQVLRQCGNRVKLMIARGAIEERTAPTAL

GIPC3, Q8TF64 = target: GIPC3, Q8TF64
Sequence of GIPC3, Q8TF64 (Q8TF64 107-202): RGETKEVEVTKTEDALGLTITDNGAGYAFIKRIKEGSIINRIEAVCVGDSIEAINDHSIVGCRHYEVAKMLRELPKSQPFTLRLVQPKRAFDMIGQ

PARD6B, Q9BYG5 = target: T6, PARD6B, Q9BYG5
T6 sequence (Q9BYG5 152-260, limits assumed, looked up): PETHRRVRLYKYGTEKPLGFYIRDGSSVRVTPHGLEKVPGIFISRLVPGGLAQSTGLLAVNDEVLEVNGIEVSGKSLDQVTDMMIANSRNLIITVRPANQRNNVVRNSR

Inadl_7, Q8NI35 = target: Inadl_7, Q8NI35
Sequence of Inadl_7, Q8NI35 (Q8NI35 1219-1332): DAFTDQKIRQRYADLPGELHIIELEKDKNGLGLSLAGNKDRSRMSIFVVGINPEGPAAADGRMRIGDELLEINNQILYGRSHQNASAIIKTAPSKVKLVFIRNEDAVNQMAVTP

USH1C_3, Q9Y6N9 = target: T7, USH1C_3, Q9Y6N9
T7 sequence (Q9Y6N9 447-547, limits assumed, looked up): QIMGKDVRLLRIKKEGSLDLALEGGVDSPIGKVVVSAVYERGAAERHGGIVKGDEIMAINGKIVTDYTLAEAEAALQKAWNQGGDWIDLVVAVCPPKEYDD

MPDZ_6, O75970 = target: T8, MPDZ_6, O75970
T8 sequence (O75970 1003-1099, limits assumed, looked up): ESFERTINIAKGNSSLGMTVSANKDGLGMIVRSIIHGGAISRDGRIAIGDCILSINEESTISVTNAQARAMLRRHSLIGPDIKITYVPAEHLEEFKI

PDZRN4_2, Q6ZMN7 = target: PDZRN4_2, Q6ZMN7
Sequence of PDZRN4_2, Q6ZMN7 (Q6ZMN7 389-498): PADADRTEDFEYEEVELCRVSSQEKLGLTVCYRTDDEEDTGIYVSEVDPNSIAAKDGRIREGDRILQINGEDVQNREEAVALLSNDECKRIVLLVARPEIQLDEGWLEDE

DLG5_2, Q8TDM6 = target: DLG5_2, Q8TDM6
Sequence of DLG5_2, Q8TDM6 (Q8TDM6 714-800): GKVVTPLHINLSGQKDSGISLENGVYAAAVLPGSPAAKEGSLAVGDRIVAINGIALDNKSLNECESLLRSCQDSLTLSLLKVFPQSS

GRIP1_1, Q9Y3R0 = target: T9, GRIP1_1, Q9Y3R0
T9 sequence (Q9Y3R0 48-146, limits assumed, looked up): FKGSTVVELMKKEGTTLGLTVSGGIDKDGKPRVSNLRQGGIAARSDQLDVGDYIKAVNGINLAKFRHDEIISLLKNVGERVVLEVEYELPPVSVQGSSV

MAGI3_3, Q5TCQ9 = target: MAGI3_3, Q5TCQ9
Sequence of MAGI3_3, Q5TCQ9 (Q5TCQ9 572-655): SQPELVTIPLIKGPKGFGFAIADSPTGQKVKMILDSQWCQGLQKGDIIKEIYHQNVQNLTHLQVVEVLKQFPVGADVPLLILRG

SHANK3, Q9BYB0 = target: T10, SHANK3, Q9BYB0
T10 sequence (Q9BYB0 641-750, limits assumed, looked up): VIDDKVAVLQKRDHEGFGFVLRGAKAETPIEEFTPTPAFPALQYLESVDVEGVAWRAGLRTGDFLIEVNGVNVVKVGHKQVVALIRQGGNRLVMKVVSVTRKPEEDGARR

PDLIM4, P50479 = target: PDLIM4, P50479
Sequence of PDLIM4, P50479 (P50479 1-83): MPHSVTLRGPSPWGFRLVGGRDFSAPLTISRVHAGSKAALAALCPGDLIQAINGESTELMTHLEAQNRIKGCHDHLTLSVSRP

MPP5, Q8N3R9 = target: T11, MPP5, Q8N3R9
T11 sequence (Q8N3R9 251-346, limits assumed, looked up): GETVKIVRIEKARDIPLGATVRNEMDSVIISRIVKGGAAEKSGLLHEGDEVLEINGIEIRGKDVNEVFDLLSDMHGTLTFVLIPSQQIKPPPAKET

Sequence of Inadl_10, Q8NI35 (Q8NI35 1673-1763): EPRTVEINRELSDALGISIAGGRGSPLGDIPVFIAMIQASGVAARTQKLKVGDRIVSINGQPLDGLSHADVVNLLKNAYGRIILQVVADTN

## PSRDRKETSI [RALBP1, Q15311]
Inadl_10, Q8NI35
  pKd: below the threshold
PDZD4, Q76G19
  pKd: below the threshold
PREX1_1, Q8TCU6
  pKd: below the threshold
SCRIB_3, Q14160
  pKd: 4.97
CARD14, Q9BXL6
  pKd: below the threshold
SHROOM4, Q9ULL8
  pKd: below the threshold
PREX2_2, Q70Z35
  pKd: below the threshold
PDLIM1, O00151
  pKd: below the threshold
MAST3, O60307
  pKd: below the threshold
PDZD2_5, O15018
  pKd: below the threshold
MAGI1_3, Q96QZ7
  pKd: below the threshold
MAGI1_5, Q96QZ7
  pKd: below the threshold
AHNAK2, Q8IVF2
  pKd: below the threshold
MPDZ_2, O75970
  pKd: below the threshold
GIPC3, Q8TF64
  pKd: below the threshold
PARD6B, Q9BYG5
  pKd: below the threshold
Inadl_7, Q8NI35
  pKd: 4.36
USH1C_3, Q9Y6N9
  pKd: below the threshold
MPDZ_6, O75970
  pKd: below the threshold
PDZRN4_2, Q6ZMN7
  pKd: below the threshold
DLG5_2, Q8TDM6
  pKd: 4.26
GRIP1_1, Q9Y3R0
  pKd: below the threshold
MAGI3_3, Q5TCQ9
  pKd: below the threshold
SHANK3, Q9BYB0
  pKd: below the threshold
PDLIM4, P50479
  pKd: below the threshold
MPP5, Q8N3R9
  pKd: below the threshold
